Experimental data published in patent US20130336893A1 (Sanofi, published 2013).
Where no end group is shown, it is not given here. [ ]: non-standard residue; d: D form.

Experiments:
human GLP-1 receptor = human GLP-1 receptor (human, UniProt P43220 24-463); assay: cell-based or functional assay
human glucagon receptor = human glucagon receptor (human, UniProt P47871 26-477); assay: cell-based or functional assay
Chain of human glucagon receptor (P47871 26-477): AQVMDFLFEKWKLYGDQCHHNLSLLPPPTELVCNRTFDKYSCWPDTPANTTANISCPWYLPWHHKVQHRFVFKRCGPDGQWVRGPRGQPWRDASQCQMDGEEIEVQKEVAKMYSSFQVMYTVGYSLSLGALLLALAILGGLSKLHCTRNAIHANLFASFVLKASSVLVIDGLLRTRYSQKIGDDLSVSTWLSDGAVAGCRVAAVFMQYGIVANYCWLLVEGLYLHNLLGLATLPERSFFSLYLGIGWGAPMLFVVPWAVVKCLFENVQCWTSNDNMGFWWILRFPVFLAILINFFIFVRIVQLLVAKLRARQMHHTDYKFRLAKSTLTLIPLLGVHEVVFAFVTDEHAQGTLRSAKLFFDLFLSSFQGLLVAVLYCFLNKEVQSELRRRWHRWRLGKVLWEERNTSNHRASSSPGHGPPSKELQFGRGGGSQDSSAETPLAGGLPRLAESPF

B1: SEQ ID NO: (43) (peptide)
peptide: H[dS]QGTFTSDLSKQFDSRRAQDFIEWLKNGGPSSGAPPPS-NH2
modifications: N-terminus assumed
SMILES: CC[C@H](C)[C@H](NC(=O)[C@H](Cc1ccccc1)NC(=O)[C@H](CC(=O)O)NC(=O)[C@H](CCC(N)=O)NC(=O)[C@H](C)NC(=O)[C@H](CCCNC(=N)N)NC(=O)[C@H](CCCNC(=N)N)NC(=O)[C@H](CO)NC(=O)[C@H](CC(=O)O)NC(=O)[C@H](Cc1ccccc1)NC(=O)[C@H](CCC(N)=O)NC(=O)[C@H](CCCCN)NC(=O)[C@H](CO)NC(=O)[C@H](CC(C)C)NC(=O)[C@H](CC(=O)O)NC(=O)[C@H](CO)NC(=O)[C@@H](NC(=O)[C@H](Cc1ccccc1)NC(=O)[C@@H](NC(=O)CNC(=O)[C@H](CCC(N)=O)NC(=O)[C@@H](CO)NC(=O)[C@@H](N)Cc1c[nH]cn1)[C@@H](C)O)[C@@H](C)O)C(=O)N[C@@H](CCC(=O)O)C(=O)N[C@@H](Cc1c[nH]c2ccccc12)C(=O)N[C@@H](CC(C)C)C(=O)N[C@@H](CCCCN)C(=O)N[C@@H](CC(N)=O)C(=O)NCC(=O)NCC(=O)N1CCC[C@H]1C(=O)N[C@@H](CO)C(=O)N[C@@H](CO)C(=O)NCC(=O)N[C@@H](C)C(=O)N1CCC[C@H]1C(=O)N1CCC[C@H]1C(=O)N1CCC[C@H]1C(=O)N[C@@H](CO)C(N)=O
**Q.** Which results are given for B1?
**A.** EC50 hGLP-1R (cAMP formation) (human GLP-1 receptor): 0.3 nM; EC50 hGlucagonR (cAMP formation) (human glucagon receptor): 0.148 nM
